Measurements taken from patent publication US20140322726A1.

Experiments:
[1] = molecular target: endogenous human asparagine synthetase (ASNS) in leukemia cells (human) (UniProt P08243); assay: flow cytometry with QIFIKIT calibration beads, MOLT-4 cells, control antibody at 3 ug/ml
[2] = molecular target: endogenous human asparagine synthetase (ASNS) in leukemia cells (human) (UniProt P08243); assay: flow cytometry with QIFIKIT calibration beads, K562 cells, control antibody at 3 ug/ml
[3] = molecular target: endogenous human asparagine synthetase (ASNS) in leukemia cells (human) (UniProt P08243); assay: flow cytometry on fixed, permeabilised MOLT-4 cells (extremely low ASNS), control antibody at 3 ug/ml
[4] = molecular target: endogenous human asparagine synthetase (ASNS) in leukemia cells (human) (UniProt P08243); assay: flow cytometry on fixed, permeabilised K562 cells (high ASNS), control antibody at 3 ug/ml

UniProt P08243, sequence (P08243 2-561): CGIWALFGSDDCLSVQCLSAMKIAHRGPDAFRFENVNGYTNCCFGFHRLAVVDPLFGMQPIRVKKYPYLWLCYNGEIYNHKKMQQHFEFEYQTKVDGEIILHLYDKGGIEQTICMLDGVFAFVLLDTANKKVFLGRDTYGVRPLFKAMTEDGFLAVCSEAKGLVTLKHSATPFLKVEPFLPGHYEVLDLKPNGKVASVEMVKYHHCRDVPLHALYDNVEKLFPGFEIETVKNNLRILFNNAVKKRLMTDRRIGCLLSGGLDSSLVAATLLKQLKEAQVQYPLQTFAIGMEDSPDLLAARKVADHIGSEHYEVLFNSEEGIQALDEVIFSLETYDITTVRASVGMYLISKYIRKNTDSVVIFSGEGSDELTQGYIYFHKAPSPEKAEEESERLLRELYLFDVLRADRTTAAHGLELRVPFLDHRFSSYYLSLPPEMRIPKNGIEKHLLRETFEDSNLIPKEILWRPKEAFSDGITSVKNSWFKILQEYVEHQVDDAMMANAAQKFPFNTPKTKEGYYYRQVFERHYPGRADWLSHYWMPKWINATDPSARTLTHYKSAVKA

ABC (antibody binding capacity) [1]: 631 units/cell
ABC (antibody binding capacity) [2]: 874 units/cell
MFI (arbitrary units) [3]: 3.17
MFI (arbitrary units) [4]: 4.56
Substance: control mouse IgG (3423, 2AHB12; Institute of Immunology) (antibody)
